The values that follow come from US20030143225A1 (Genentech, published 2003).

The target of assay [1] is truncated transmembrane tissue factor comprising residues 1-243, relipidated (human) (UniProt P13726). As to the kind of experiment: cell-based or functional assay.
Assay [2] deals with tissue factor on human J82 cells (human, UniProt P13726 33-295). As to the kind of experiment: cell-based or functional assay.
The target in assay [3] is relipidated human tissue factor (Innovin) (human, UniProt P13726 33-295). As to the kind of experiment: cell-based or functional assay.
The target in assay [4] is T1, soluble tissue factor composed of the extracellular domain residues 1-219 of hTF (human, UniProt P13726 33-251).
T1 construct: Expressed in E. coli; also called sTF
As to the kind of experiment: SPR (BIAcore 2000), antibody immobilized, sTF in solution, 1:1 model. Background: In SPR one partner is held on a chip, and binding of the other changes the refractive index at the surface.
Description: The binding affinity of sTF for immobilized antibody was determined by surface plasmon resonance (SPR) measurements on a Pharmacia BIAcore 2000 instrument (Pharmacia Biosensor). Each antibody was coupled to the sensor chip surface at a level of 2000-3000 resonance units using amine coupling chemistry (Pharmacia Biosensor). In a typical experiment, 4 different antibodies were immobilized on each of the 4 flow cells of the sensor chip so that sensorgrams could be recorded simultaneously for all 4 antibodies. […] The kinetic constants were determined by non-linear regression analysis according to a 1:1 binding model using software supplied by the manufacturer. Dissociation constants were calculated from the kinetic constants. […] These solutions were incubated at ambient temperature for 30 minutes prior to injection onto the sensor chip. […] Affinities were determined by SPR measurements as described above for the wild-type protein.

truncated transmembrane tissue factor comprising residues 1-243, relipidated (human), sequence (P13726 33-275): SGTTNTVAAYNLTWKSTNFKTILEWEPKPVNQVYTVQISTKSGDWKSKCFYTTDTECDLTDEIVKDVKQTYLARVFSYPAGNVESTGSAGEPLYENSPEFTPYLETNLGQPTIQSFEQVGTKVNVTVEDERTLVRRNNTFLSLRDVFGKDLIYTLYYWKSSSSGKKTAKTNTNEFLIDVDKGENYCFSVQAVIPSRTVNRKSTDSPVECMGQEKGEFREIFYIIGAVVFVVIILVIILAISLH

HTF1 antibody came in with a concentration that inhibited the initial rate of FX activation in human plasma by 50% in assay [1] of 150 µg/mL.

B1: murine anti-TF antibody 5G6 (antibody, V domains shown)
VH: EVLLQQSGPELVKPGASVKIPCKASGYTFTEYNMDWVKQSHGKSLEWIGDINPNNGNTIYNQKFKGKATLTVDKSSTTAYLELRSLTSEDTAVYFCARDHDYYFDFWGQGTTLTVSS
VL: DIQMTQTPASQSASLGESVTITCLASQTIDTWLAWYQQKPGKSPQLLIYAATSLADGVPSRFSGSGSGTKFSFKISSLQAEDFVSYYCQQPYSSPYTFGGGTKLELKR
notes: Murine monoclonal antibody purified from ascites
A word on the Kd: it is the equilibrium constant for the complex coming apart. Low readings indicate higher affinity, high ones lower affinity. A word on the koff: it is the rate constant with which the complex falls apart. A lower koff goes with a long-lived complex. In general, kon refers to a measure of how fast the partners come together. For B1, the “IC50 of FPA generation, human ex-vivo blood flow system” value in assay [2] worked out at 50 µg/mL. The “antibody concentration that prolonged the clotting time by 1.5-fold (PT assay)” value in assay [3] was determined as 27 µg/mL. In assay [4], this molecule showed a Kd of 1.7 nM, a koff of 0.0005 s⁻¹ and a kon of 300000 M⁻¹ s⁻¹.
